Results: article PMC2670837, “Staphylococcus aureus immunodominant surface antigen B is a cell-surface associated nucleic acid binding protein”

T1: IsaB (recombinant, untagged) (Staphylococcus aureus 10833) (UniProt Q9LAB5)
T1 sequence: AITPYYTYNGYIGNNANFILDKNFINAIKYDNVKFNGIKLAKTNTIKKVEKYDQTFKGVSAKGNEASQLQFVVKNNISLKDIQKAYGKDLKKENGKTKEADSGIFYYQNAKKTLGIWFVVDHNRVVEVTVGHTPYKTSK

T2: IsaB (recombinant, untagged) (Staphylococcus aureus 10833, UniProt Q9LAB5 37-175)
T2 sequence: T1 sequence


What was measured:
[1] = molecular target: T1, IsaB (recombinant, untagged) (Staphylococcus aureus 10833); test: SPR; details: EMSA: 20 mM HEPES, 1 mM DTT, 20 mM KCl, 200 ug/ml BSA, 10% glycerol, room temperature, 10 min, SPR: 0.33x HBS-EP + non-specific binding inhibitor, SA chip …
[2] = molecular target: T2, IsaB (recombinant, untagged); test: EMSA; 240 pmol-3.84 nmol IsaB; shift abolished by salmon sperm DNA or yeast tRNA, not by dNTPs; EMSA: 20 mM HEPES, 1 mM DTT, 20 mM KCl, 200 ug/ml BSA, 10% glycerol, room temperature, 10 min; SPR: 0.33x HBS-EP + non-specific binding inhibitor, SA chip, Biacore T100; pull-down: 10 mM HEPES, 60 mM KCl, 4 mM MgCl2, 0.1 mM EDTA, 0.1 mg/ml BSA, 0.25 mM DTT, on ice; pH not stated; details: protein: recombinant; label: Alexa Fluor 594 (ULYSIS)

Row | Molecule | Kd (M (unit not given)) [1] | also measured
1 | ATTGVGTTATCAATAATCTTA / GGTGGGATCCTTGAAGGATAAGATTA | 8.1e-09 | 
2 | ATTGVGTTATCAATAATCTTA [BioticaPRO (ssDNA SPR bait; identity inferred)] | 1.08e-08 | 
3 | TNGUGCAAUUACAAAUAUUUCCGUUUAAUUAUAACAACAAUCUAUUGCA [WTUTR(RNA) (RNA SPR bait; identity inferred)] |  | Kd (M (unit not given)) ([1]; ribonucleotides with 3' terminal deoxy GCA): 1.65e-08
4 | GUUUAAUUAUAACAACAAUCUAUUGCA (ssRNA) [icaUTR6] |  | binding result [2]: binds
